# Test results as given in paper doi:10.1101/2024.11.26.625568.
# Columns and labels:
# dynein [1] = target: dynein (UniProt Q14204)
# dynein [2] = target: dynein (UniProt Q14204); remark: listed apart in the source
# dynein [3] = target: dynein (UniProt Q14204); remark: listed apart in the source
Substance,"run frequency of DDN complexes, against wild-type NuMA FL (fold increase) (dynein [3])",also measured
Full-length NuMA (from UniProt Q14980 1-2115) (natural protein),–,"frequency of processive runs of DDN complexes, against NuMA 1-705 under the same conditions (fold less frequent) (dynein [1]): 10"
NuMA 1-1699 (from UniProt Q14980 1-1699) (domain or fragment),–,"run frequency of DDN complexes in single-molecule motility assays, against the shorter NuMA fragments (dynein [2]): 5 fold lower"
NuMA FL S1969D (from UniProt Q14980 1-2115) (natural protein),< 4,–
NuMA FL T2055D (from UniProt Q14980 1-2115) (natural protein),< 4,–
